Assay results: patent publication US20010018195

Experiments:
[1] = target: GST-XIAP fusion protein, P98170
Sequence of GST-XIAP fusion protein, P98170 (P98170 whole entry, the tested form may be a part): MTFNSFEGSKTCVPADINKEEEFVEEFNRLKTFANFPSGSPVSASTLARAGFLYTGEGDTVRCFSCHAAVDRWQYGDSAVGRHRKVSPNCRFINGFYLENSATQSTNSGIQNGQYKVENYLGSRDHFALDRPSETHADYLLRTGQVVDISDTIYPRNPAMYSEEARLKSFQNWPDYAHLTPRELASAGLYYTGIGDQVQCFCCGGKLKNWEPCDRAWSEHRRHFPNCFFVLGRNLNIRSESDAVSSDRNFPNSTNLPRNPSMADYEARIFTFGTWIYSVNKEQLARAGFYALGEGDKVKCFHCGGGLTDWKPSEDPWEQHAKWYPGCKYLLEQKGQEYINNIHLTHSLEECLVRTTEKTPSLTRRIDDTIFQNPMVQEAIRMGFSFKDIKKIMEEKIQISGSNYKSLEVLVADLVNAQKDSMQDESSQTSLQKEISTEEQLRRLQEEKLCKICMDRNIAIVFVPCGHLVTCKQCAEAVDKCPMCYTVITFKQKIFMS

Sequence of GST-c-IAP-2, Q13489 (Q13489 whole entry): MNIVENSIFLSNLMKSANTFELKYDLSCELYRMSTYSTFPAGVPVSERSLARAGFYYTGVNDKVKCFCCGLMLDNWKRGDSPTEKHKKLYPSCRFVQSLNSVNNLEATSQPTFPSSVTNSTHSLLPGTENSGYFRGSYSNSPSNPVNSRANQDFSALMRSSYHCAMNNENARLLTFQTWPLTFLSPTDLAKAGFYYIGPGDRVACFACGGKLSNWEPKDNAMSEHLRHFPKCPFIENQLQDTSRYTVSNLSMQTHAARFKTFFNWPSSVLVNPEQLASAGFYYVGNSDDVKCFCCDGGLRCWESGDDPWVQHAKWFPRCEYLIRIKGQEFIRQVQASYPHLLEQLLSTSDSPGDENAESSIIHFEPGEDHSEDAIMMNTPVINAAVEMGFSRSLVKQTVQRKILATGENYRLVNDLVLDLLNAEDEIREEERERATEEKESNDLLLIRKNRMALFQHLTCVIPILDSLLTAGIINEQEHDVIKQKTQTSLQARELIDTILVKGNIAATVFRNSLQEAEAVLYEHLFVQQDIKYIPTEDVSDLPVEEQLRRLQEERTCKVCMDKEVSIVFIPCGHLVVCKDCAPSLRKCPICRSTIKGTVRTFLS
Sequence of GST-c-IAP-1, Q13490 (Q13490 whole entry): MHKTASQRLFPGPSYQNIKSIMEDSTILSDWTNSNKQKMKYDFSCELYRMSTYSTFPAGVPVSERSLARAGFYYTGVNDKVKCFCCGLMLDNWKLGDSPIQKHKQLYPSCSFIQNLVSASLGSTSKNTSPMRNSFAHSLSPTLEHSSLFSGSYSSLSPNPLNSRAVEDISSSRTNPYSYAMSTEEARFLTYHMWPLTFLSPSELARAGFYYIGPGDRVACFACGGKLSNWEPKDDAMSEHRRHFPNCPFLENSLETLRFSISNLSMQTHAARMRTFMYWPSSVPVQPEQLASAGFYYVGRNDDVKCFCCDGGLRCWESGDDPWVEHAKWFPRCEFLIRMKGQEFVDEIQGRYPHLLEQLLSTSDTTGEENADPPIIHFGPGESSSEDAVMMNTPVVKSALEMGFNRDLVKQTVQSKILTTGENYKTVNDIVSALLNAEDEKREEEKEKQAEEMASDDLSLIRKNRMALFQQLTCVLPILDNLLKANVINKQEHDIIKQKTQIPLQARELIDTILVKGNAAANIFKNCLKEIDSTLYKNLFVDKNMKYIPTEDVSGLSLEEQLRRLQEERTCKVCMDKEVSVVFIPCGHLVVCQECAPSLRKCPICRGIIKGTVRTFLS

Protein | average ratio velocities (vi/vo) of DEVD-AFC hydrolysis [1] | substrate cleavage by purified caspase [1] | cleavage of purified pro-caspase-3 by active caspase-9 (immunoblot) [1] | coupled reaction: pro-caspase-3 activation by caspase-9, Ac-DEVD-AFC hydrolysis [1] | coupled reaction: pro-caspase-3 activation by caspase-9, Ac-DEVD-AFC hydrolysis (GST-c-IAP-1, Q13490) | coupled reaction: pro-caspase-3 activation by caspase-9, Ac-DEVD-AFC hydrolysis (GST-c-IAP-2, Q13489)
purified recombinant caspase-6 (His6-tagged) (protein) chain 1: AFYKREMFDPAEKYKMDHRRRGIALIFNHERFFWHLTLPERRGTCADRDNLTRRFSDLGFEVKCFNDLKAEELLLKIHEVSTVSHADADCFVCVFLSHGEGNHIYAYDAKIEIQTLTGLFKGDKCHSLVGKPKIFIIQACRGNQHDVPVIPLDVVD chain 2: AASVYTLPAGADFLMCYSVAEGYYSHRETVNGSWYIQDLCEMLGKYGSSLEFTELLTLVNRKVSQRRVDFCKDPSAIGKKQVPCFASMLTKKLHFFPKSN | ratios of about 1.0 | did not interfere with substrate cleavage by caspase-1, caspase-6 or caspase-8, even when added at a 50-fold molar excess |  |  |  | 
purified recombinant active caspase-8 (catalytic subunit, Ser 217 to the C-terminus, His6-tagged) (protein) SESQTLDKVYQMKSKPRGYCLIINNHNFAKAREKVPKLHSIRDRNGTHLDAGALTTTFEELHFEIKPHDDCTVEQIYEILKIYQLMDHSNMDCFICCILSHGDKGIIYGTDGQEAPIYELTSQFTGLKCPSLAGKPKVFFIQACQGDNYQKGIPVETDSEEQPYLEMDLSSPQTRYIPDEADFLLGMATVNNCVSYRNPAEGTWYIQSLCQSLRERCPRGDDILTILTEVNYEVSNKDDKKNMGKQMPQPTFTLRKKLVFPSD | ratios of about 1.0 | did not interfere with substrate cleavage by caspase-1, caspase-6 or caspase-8, even when added at a 50-fold molar excess |  |  |  | 
purified recombinant active caspase-9 (His6-tagged) (protein) MDEADRRLLRRCRLRLVEELQVDQLWDALLSRELFRPHMIEDIQRAGSGSRRDQARQLIIDLETRGSQALPLFISCLEDTGQDMLASFLRTNRQAAKLSKPTLENLTPVVLRPEIRKPEVLRPETPRPVDIGSGGFGDVGALESLRGNADLAYILSMEPCGHCLIINNVNFCRESGLRTRTGSNIDCEKLRRRFSSLHFMVEVKGDLTAKKMVLALLELAQQDHGALDCCVVVILSHGCQASHLQFPGAVYGTDGCPVSVEKIVNIFNGTSCPSLGGKPKLFFIQACGGEQKDHGFEVASTSPEDESPGSNPEPDATPFQEGLRTFDQLDAISSLPTPSDIFVSYSTFPGFVSWRDPKSGSWYVETLDDIFEQWAHSEDLQSLLLRVANAVSVKGIYKQMPGCFNFLRKKLFFKTS |  |  | Addition of an equimolar concentration of XIAP relative to caspase-9 strongly inhibited cleavage of pro-caspase-3. | XIAP, c-IAP-1 and c-IAP-2 each efficiently inhibited pro-caspase-3 activation and cleavage of the tetrapeptide substrate | XIAP, c-IAP-1 and c-IAP-2 each efficiently inhibited pro-caspase-3 activation and cleavage of the tetrapeptide substrate | XIAP, c-IAP-1 and c-IAP-2 each efficiently inhibited pro-caspase-3 activation and cleavage of the tetrapeptide substrate
purified recombinant caspase-1 (protein) NPAMPTSSGSEGNVKLCSLEEAQRIWKQKSAEIYPIMDKSSRTRLALIICNEEFDSIPRRTGAEVDITGMTMLLQNLGYSVDVKKNLTASDMTTELEAFAHRPEHKTSDSTFLVFMSHGIREGICGKKHSEQVPDILQLNAIFNMLNTKNCPSLKDKPKVIIIQACRGDSPGVVWFKDSVGVSGNLSLPTTEEFEDDAIKKAHIEKDFIAFCSSTPDNVSWRHPTMGSVFIGRLIEHMQEYACSCDVEEIFRKVRFSFEQPDGRAQMPTTERVTLTRCFYLFPGH |  | did not interfere with substrate cleavage by caspase-1, caspase-6 or caspase-8, even when added at a 50-fold molar excess |  |  |  | 
